Experimental data: patent publication US20240327504A1 (MABLOC, published 2024)

Columns and labels:
Assay in all cases: cell-based or functional assay
[1] = target: T1, SARS-CoV-2 Spike, Alpha variant (SARS-CoV-2, UniProt P0DTC2 14-1273)
[2] = target: T2, SARS-CoV-2 Spike, Beta variant (SARS-CoV-2, UniProt P0DTC2 14-1273)
[3] = target: T3, SARS-CoV-2 Spike, Gamma variant (SARS-CoV-2, UniProt P0DTC2 14-1273)
[4] = target: T4, SARS-CoV-2 Spike, Delta variant (SARS-CoV-2, UniProt P0DTC2 14-1273)
[5] = target: SARS-CoV-2 Spike, Kappa variant (SARS-CoV-2, UniProt P0DTC2 14-1273)
[6] = target: SARS-CoV-2 Spike, Lambda variant (SARS-CoV-2, UniProt P0DTC2 14-1273)
[7] = target: SARS-CoV-2 Spike, Epsilon variant (SARS-CoV-2, UniProt P0DTC2 14-1273)
[8] = target: SARS-CoV-2 Spike, Eta variant (SARS-CoV-2, UniProt P0DTC2 14-1273)
[9] = target: SARS-CoV-2 Spike, Iota variant (SARS-CoV-2, UniProt P0DTC2 14-1273)
[10] = target: SARS-CoV-2 Spike, Zeta variant (SARS-CoV-2, UniProt P0DTC2 14-1273)
[11] = target: T1, SARS-CoV-2 Spike, Alpha variant; remark: listed apart in the source
[12] = target: T2, SARS-CoV-2 Spike, Beta variant; remark: listed apart in the source
[13] = target: T3, SARS-CoV-2 Spike, Gamma variant; remark: listed apart in the source
[14] = target: T4, SARS-CoV-2 Spike, Delta variant; remark: listed apart in the source

B1: MR22950 antibody (antibody, V domains shown)
VH: QLQLQESGPGLVKPSEPLSLTCAVSGGFIGTNWWTWIRQPPGKGLEWIGRISGSVGSTSYNPSLKSRVTISRDTSKNQFSLNLNSLTAADTAVYYCAREGRLDTLDWGQGVLVIVSS
VL: QSVLTQPPSASEAARKSVTISCSGSSSNIGSYSVSWYQQFPGTPPKLLIYFNDQRASGVSDRFSGSKSGTSASLAISGLQTEDEADYYCAGWDDSLNGVLFGGGTRLTVLG
Neut50 [1]: 7.3 ng/mL
Neut50 [2]: 33 ng/mL
Neut50 [3]: 105 ng/mL
Neut50 [4]: 7.8 ng/mL
Neut50 [5]: 15 ng/mL
Neut50 [6]: 19 ng/mL
Neut50 [7]: 10.8 ng/mL
Neut50 [8]: 16 ng/mL
Neut50 [9]: 0.5 ng/mL
Neut50 [10]: 3.8 ng/mL
Neut50 (ng/mL), authentic live virus, plaques on Vero cells [11]: 4.7 ng/mL
Neut50 (ng/mL), authentic live virus, plaques on Vero cells [12]: 6.9 ng/mL
Neut50 (ng/mL), authentic live virus, plaques on Vero cells [13]: 12.7 ng/mL
Neut50 (ng/mL), authentic live virus, plaques on Vero cells [14]: 20.3 ng/mL
